Measurements taken from patent publication US20210030857A1 (NGM BIOPHARMACEUTICALS, published 2021).

T1: human beta klotho expressed on cells (human, UniProt Q86Z14 1-1044)
T1 construct: also called HuKLB overexpressing cells; Human KLB
T1 sequence: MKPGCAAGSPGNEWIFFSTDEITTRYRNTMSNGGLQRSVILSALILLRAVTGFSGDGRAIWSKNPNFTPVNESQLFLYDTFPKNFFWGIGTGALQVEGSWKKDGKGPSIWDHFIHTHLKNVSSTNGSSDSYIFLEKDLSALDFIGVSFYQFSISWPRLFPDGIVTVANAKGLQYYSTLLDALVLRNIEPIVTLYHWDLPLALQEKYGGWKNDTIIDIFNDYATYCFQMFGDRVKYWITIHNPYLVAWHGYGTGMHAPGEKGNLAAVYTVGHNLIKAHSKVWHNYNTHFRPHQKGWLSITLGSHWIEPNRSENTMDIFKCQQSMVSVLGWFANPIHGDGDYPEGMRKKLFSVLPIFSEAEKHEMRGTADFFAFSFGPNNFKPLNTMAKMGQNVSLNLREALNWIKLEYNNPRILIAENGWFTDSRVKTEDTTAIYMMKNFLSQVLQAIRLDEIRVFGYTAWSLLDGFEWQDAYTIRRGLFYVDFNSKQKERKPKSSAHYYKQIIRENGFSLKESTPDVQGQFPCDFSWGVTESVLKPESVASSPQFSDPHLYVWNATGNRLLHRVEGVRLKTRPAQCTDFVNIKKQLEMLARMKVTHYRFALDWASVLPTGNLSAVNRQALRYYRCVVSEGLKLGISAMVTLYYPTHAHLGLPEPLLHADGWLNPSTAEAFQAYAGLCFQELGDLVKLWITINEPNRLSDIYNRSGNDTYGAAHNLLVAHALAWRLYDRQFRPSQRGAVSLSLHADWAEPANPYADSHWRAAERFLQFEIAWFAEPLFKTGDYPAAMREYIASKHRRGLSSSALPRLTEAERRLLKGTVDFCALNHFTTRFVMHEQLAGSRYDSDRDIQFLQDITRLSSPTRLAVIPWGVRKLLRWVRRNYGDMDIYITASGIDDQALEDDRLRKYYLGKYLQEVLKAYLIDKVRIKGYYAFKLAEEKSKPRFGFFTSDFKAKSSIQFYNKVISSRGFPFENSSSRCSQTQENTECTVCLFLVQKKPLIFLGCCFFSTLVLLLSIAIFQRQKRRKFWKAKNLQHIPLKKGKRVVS

T2: mouse beta klotho expressed on cells (mouse (Mus musculus), UniProt Q99N32 1-1043)
T2 construct: also called Mouse KLB
T2 sequence: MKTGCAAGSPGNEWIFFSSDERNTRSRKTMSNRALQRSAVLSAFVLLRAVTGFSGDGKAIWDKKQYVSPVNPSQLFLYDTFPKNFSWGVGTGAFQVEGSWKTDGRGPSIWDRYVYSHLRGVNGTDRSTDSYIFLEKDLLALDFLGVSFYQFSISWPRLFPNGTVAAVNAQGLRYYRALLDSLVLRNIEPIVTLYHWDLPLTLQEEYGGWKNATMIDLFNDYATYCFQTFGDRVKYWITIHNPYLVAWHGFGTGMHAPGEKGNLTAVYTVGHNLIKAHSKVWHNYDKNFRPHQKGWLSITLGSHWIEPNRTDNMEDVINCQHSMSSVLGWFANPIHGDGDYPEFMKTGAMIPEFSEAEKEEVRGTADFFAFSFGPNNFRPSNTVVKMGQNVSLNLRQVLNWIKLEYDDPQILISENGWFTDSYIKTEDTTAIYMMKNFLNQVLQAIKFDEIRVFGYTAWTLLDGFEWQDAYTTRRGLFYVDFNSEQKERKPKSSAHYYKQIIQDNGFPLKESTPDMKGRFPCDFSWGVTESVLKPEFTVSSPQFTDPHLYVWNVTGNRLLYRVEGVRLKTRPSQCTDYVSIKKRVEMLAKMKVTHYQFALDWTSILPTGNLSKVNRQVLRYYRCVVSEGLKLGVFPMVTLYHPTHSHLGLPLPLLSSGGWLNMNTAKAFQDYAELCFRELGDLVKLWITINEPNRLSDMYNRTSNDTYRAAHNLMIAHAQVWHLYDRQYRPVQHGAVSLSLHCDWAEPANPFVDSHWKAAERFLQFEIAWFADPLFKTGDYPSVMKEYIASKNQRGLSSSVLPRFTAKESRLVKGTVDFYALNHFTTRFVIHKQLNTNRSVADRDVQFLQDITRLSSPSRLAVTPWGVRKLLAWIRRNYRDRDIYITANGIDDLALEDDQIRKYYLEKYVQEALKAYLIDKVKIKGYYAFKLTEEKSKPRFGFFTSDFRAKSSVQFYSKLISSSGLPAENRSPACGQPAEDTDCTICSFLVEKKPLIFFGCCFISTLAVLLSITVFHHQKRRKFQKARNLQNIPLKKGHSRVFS


Key:
[1] = target: T1, human beta klotho expressed on cells; experiment: FACS on transfected Expi293 cells, antibody 1 µg/ml, labelled anti-human Fc
Description: (§1) Studies were performed in order to localize the binding site on human KLB of anti-beta klotho antibodies in the 5H23 epitope bin, including 5H23 as described in Example 3, with sequences shown in Tables 1-10 and FIGS. 1-3, and human anti-beta klotho antibodies in the 5H23 epitope bin, such as humanized 5H23 antibodies (e.g., VH SEQ ID NO: 271 and VL SEQ ID NO: 276). For example, FACS-based binding assays for domain mapping were performed on Expi293 cells (Life Technologies, A14635) that were transiently transfected with plasmids encoding variants of KLB: human, mouse, cynomolgus, a chimeric version in which the KL1 domain sequence of mouse KLB (M1-F506) replaces the KL1 domain of human KLB (M1-F508) to create mouse-human KLB (SEQ ID NO: 376), and a second chimera in which the human KL1 sequence (M1-F508) replaces the KL1 domain of mouse KLB (M1-F506) to create human-mouse KLB (SEQ ID NO: 374). Additionally, the expression vector pYD7 harboring no KLB sequence was transfected as a negative control.
(§2) In some studies, binding of a purified sample of a humanized 5H23 antibody (e.g., VH SEQ ID NO: 271 and VL SEQ ID NO: 276) to KLB variants was determined by FACS analysis. […] After washing with PBS/1% BSA/0.1% azide, transfected cells were then co-incubated with labeled anti-human Fc (Jackson lmmunoresearch) for 30 minutes at 4° C. After washing with PBS/1% BSA/0.1% azide, cells were acquired on flow cytometer (FACS Calibur) and analyzed by cytometric software (FlowJo). To display the resulting data, graphs plotting the number of cells as a function of fluorescence intensity were generated, and the median fluorescence intensity (MFI) was determined for each sample as shown in Table 30.

[2] = target: T2, mouse beta klotho expressed on cells; experiment: as above
Description: as §1, §2

[3] = target: human beta klotho / human FGFR3c on L6 cells (human, UniProt Q86Z14 1-1044; P22607 23-806); experiment: cell-based or functional assay
human beta klotho / human FGFR3c on L6 cells, sequence (P22607 23-806, one chain of several): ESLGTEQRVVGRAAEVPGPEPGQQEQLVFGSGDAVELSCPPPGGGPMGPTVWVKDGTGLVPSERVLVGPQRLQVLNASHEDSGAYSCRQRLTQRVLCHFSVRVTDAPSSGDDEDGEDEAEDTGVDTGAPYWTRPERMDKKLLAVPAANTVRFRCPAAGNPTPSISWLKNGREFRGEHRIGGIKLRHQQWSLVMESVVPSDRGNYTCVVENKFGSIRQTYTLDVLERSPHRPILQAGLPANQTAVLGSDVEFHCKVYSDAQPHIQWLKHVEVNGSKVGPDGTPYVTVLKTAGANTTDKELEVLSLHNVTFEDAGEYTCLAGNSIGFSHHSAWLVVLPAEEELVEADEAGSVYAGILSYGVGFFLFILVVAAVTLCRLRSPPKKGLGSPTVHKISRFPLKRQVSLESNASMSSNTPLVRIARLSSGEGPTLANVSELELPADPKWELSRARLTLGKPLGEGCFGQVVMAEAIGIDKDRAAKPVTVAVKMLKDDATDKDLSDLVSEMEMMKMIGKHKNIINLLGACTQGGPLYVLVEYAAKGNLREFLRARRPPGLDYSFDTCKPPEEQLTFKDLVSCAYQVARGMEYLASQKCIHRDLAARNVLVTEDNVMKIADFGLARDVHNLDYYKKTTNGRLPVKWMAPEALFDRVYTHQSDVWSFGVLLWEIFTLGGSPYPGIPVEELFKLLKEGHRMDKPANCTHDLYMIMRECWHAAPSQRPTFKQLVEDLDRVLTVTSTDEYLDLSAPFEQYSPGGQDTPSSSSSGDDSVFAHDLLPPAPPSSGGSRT

[4] = target: human beta klotho / human FGFR4 on L6 cells (human, UniProt Q86Z14 1-1044; P22455 22-802); experiment: cell-based or functional assay
human beta klotho / human FGFR4 on L6 cells, sequence (P22455 22-802, one chain of several): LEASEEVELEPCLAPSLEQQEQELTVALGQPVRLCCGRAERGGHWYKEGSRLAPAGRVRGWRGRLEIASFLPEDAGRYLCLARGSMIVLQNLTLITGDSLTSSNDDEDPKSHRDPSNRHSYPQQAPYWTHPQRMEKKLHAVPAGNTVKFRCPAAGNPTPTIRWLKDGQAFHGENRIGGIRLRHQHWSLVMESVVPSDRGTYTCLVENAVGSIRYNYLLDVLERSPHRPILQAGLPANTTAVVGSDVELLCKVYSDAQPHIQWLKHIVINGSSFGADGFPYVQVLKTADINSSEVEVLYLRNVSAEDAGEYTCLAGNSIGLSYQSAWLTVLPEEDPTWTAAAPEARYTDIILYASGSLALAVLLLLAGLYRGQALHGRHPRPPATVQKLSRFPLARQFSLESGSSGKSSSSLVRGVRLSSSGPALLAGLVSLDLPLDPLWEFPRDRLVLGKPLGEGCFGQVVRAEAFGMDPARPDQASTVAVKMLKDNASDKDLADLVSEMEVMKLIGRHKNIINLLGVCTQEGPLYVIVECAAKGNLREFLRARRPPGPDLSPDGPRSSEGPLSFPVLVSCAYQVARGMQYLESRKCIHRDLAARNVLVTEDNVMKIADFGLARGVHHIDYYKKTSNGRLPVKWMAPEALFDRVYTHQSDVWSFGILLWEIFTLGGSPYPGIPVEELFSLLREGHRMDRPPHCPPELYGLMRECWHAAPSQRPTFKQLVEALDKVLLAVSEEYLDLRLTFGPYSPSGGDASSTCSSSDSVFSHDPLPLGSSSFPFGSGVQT

Row | Binder | Mean Fluorescence intensity [1] [MFI] | Mean Fluorescence intensity [2] [MFI] | L6 huKLB/R3c reporter assay EC50 [3] [nM] | L6 huKLB/R4 reporter assay EC50 [4] [nM]
1 | negative control antibody, anti-keyhole limpet hemocyanin (KLH) antibody (antibody, human IgG1, kappa, V domains shown, also called Neg; Control; anti-KLH antibody) VH: not shown VL: DIQMTQSPSSLSASVGDRVTITCRASQGIRNDLGWYQQKPGKAPKRLIYAASSLQSGVPSRFSGSGSGTEFTLTISSLQPEDFATYYCLQHNSYPLTFGGGTKVEIKR | 6.2 | 9.59 | – | –
2 | antibody 2L12 (antibody, V domains shown, Murine monoclonal antibody) VH: QVQLQQSGPELVKPGALVKISCKASGYTFTRYDINWVKKRPGQGLEWIGWIYPGDDSTKYNEKFKGKATLTADKSSSTAYMQLSSLTSENSAVYFCARSDYYGSRSFVYWGQGTLVTVSA VL: DIVLTQSPASLPVSLGQRATISCRASKSVSTSGYSYLHWYQQKPGQPPKLLIYLASNLESGVPARFSGSGSGTDFTLNIHPVEEEDAATYYCQHSGELPYTFGGGTKLEIK | – | – | > 67 | > 67
3 | antibody 5H23 (antibody, V domains shown, Murine monoclonal antibody from hybridoma; also called 5H23-Alexa647 (labelled form)) VH: QVQLQQSGPELVKPGALVKISCKASGYTFTSYDINWVKQRPGQGLEWIGWIYPGDGSTKYNEKFKGKATLTADKSSRTAYMQLSSLTSENSAVYFCARSDYYGSRSFAYWGQGTLVTVSA VL: DIVLTQSPASLAVSLGQRATISCRASKSVSTSGYVYMHWNQQKPGQPPKLLIYLASYLESGVPARFSGSGSGTDFTLNIHPVEEEDAAIYYCQHSRDLTFPFGGGTKLEIK | – | – | > 67 | > 67
4 | antibody 4P5 (antibody, V domains shown, Murine monoclonal antibody) VH: QVQLQQSGPELVKPGALVKISCKASGYTFTRYDINWVKKRPGQGLEWIGWIYPGDDSTKYNEKFKGKATLTADKSSSTAYMQLSSLTSENSAVYFCARSDYYGSRSFVYWGQGTLVTVSA VL: DILLTQSPASLAVSLGQRATISCRASKSVSTSGYSYMHWYQQKPGQPPKLLIYLASNLESGVPARFSGRGSGTDFTLNIHPVEEEDAATYYCHHSGELPYTFGGGTKLEIK | – | – | > 67 | > 67
5 | humanized 5H23 antibody (VH SEQ ID NO: 271 and VL SEQ ID NO: 276) (antibody, V domains shown, also called h5H23; h5H23 (Prep 1)) VH: QVQLQQSGAEVKKPGASVKVSCKASGYTFTSYDINWVRQAPGQGLEWIGWIYPGDGSTKYNEKFKGKATITRDTSASTAYMELSSLRSEDTAVYFCARSDYYGSRSFAYWGQGTLVTVSS VL: DIVMTQSPDSLAVSLGERATINCRASKSVSTSGYVYMHWYQQKPGQPPKLLIYLASYLESGVPDRFSGSGSGTDFTLTISSVQAEDVAVYYCQHSRDLTFPFGGGTKLEIK | 865 | 14.2 | – | –
